Measured values: paper PMC11099923

Experiments:
[1] = target: human α7nAChR deletion mutant Δ419-423, His-tagged (human) (UniProt P36544); assay: pull-down; His-tag α7nAChR (~3 μM) as bait mixed with strep-tag PICK1 PDZ (~10 μM), Ni-NTA resin, overnight at 4°C, 10 mM phosphate pH 7.8, 150 mM NaCl, 0.05% LDAO, two washes with 50 mM imidazole, elution with 500 mM imidazole, SDS-PAGE, band intensities
[2] = target: human α7nAChR deletion mutant Δ428-432, His-tagged (human) (UniProt P36544); assay: as above
α7nAChR (Homo sapiens) = α7nAChR (Homo sapiens) (UniProt P36544); settings: cited from earlier work

| Substance | reduction of pulldown compared to WT α7nAChR [1] | reduction of pulldown compared to WT α7nAChR [2] | Kd (α7nAChR (Homo sapiens)) |
| --- | --- | --- | --- |
| PDZ domain of human PICK1 (Protein Interacting with C-kinase 1), strep-tagged (from UniProt Q9NRD5 19-110) (domain or fragment) | 50% | 85% | – |
| PICK1 PDZ (from UniProt Q9NRD5) | – | – | 3000 nM |
